Experimental findings from article PMC11655355 (Nature, 2024) are described below.

Assay [1] deals with RCD1–SRO–TAF4 (RST) domain from RCD1, RCD1-RST_(499–572) (UniProt Q8RY59). The experiment in a line: ITC. In general terms: ITC needs no label: the signal is the heat of the interaction.
For assay [2], the target named is T1, RCD1–SRO–TAF4 (RST) domain from RCD1, RCD1-RST_(499–572) (UniProt Q8RY59 499-572).
T1 sequence (looked up): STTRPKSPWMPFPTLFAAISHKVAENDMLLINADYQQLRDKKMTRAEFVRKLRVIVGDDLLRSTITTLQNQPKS
Kind of assay: ITC.

“D-ANAC013_(254–274), synthetic D-peptide (from UniProt F4IED2 254-274)” yielded a fold difference in Kd between L- and D-enantiomer in assay [1] of 500 fold. Molecule “D-ANAC046_(319–338), synthetic D-peptide (from UniProt Q9SQQ6 319-338)” returned a fold difference in Kd between L- and D-enantiomer in assay [1] of 15 fold.

Molecule “D-DREB2A_(255–272), synthetic D-peptide (from UniProt O82132 255-272)” displayed a fold difference in Kd between L- and D-enantiomer in assay [1] of 72 fold.

B1: L-DREB2A_(255–272), synthetic peptide (peptide, UniProt O82132 255-272, looked up)
peptide: SSDMFDVDELLRDLNGDD
With B1, the binding result in assay [2] is “binds”.
